Measurements published in patent US20250381223A1 (UTC THERAPEUTICS SHANGHAI, published 2025).
Residue numbers refer to the chain shown, from its start. Several values for one entry are separate records, joined by “and”; a condition that tells them apart may be missing. Equal values may be shown once.

B1: C12 (scFv)
scFv: QSVLTQPPSVSAAPGQKVTISCSGSSSNIGNNYVSWYQQLPGTAPKLLIFDDNKRPSGIPDRFSGSLSGTSASLAISGLQSEDDADYYCSAWDDSLSGYVFGTGTKLTVLGGGGSGGGGSGGGGSQVQLVQSGGGLVKPGGSLRLSCAASGFTFSSYNINWVRQAPGKGPEWVSSISSSSSYRYYADSVKGRFTISRDNAKNSLYLQMNSLRAEDTAVYYCVRDKTGGYGTAFDYWGQGTLVTVSS
notes: also called anti-CD123 scFv-C12
B2: C22 (scFv)
scFv: SYELTQPPSVSVAPGKTARITCGANNIETKSVHWYRQRPGQAPILVIYYDSDRPSGIPERFSGSTSGDTATLTISRVEAEDEADYYCQVWDSTSDHVVFGEGTKLTVLGGGGSGGGGSGGGGSEVQLVESGAEVKKPGESLKISCKGSGYSFTSYWIGWVRQMPGKGLEWMGIINPSGGSTSYAQKFQGRVTMTRDTSTSTVYMELSSLRSEDTAVYYCARVVTPYYPLTNWGQGTLVTVSS
notes: also called anti-CD123 scFv-C22
B3: C31 (scFv)
scFv: QPVLTQPPSMSGTPGQRVTISCSGGNSNIGDNSVSWYQQLPGTAPKLLIYNNNQRPLGVPDRFSGSKSGTSASLAIRGLQSEDEAHYYCSSWDDSLEGAQFGGGTKVTVLGGGGSGGGGSGGGGSEVQLVESGGGLVKPGGSLRLSCAASGFTFSDYYMSWIRQAPGKGLEWVSYISSSGSTIYYADSVKGRFTISRDNAKNSLYLQMNSLRAEDTAVYYCARGHQYYDFWSGYSNWFDPWGQGTLVTVSS
notes: also called anti-CD123 scFv-C31
B4: F2.103 (antibody, V domains shown)
VH: EVQLVESGGGLVQPGGSLRLSCAVSGFTFSTYWMHWVRQAPGKGLVWVSRINSDGSSTTYADSVKGRFTISRDNAKNTLYLQMNSLRAEDTAVYYCARDRVLWIGELSYYGMDVWGQGTTVTVSS
VL: DIQMTQSPSTLSASVGDRVTITCRASQSISNWLAWYQQKPGKAPKLLLYKASGLESGVPSRFSGSGSGTEFTLTINSLQPDDFATYYCQQSNSYSWTFGHGTKVEIKR
B5: 40.52 (antibody, V domains shown)
VH: QVQLVQSGAEVKKPGSSVKVSCKASGGTFSSYAISWVRQAPGQGLEWMGMINPSGGTTSYAQKFQGRVTMTRDTSTSTVYMELSSLRPEDTAVYYCARGFRMDQWGQGTLVTVSS
VL: QSALTQPPSASGSPGQSVTISCTGTSSDVGAYNFVSWYQQHPGNAPKLIIYDVRKRPSGIPDRFSASKSGNTASLTVSGLQADDEADYYCSSYAGNNNLVFGGGTKLTVL
notes: Tested as human IgG1 (VH on human CH1-Fc, VL on human CL)
B6: 4052.17 (antibody, V domains shown)
VH: B5 VH
VL: B5 VL with N98E, L99M

Assays:
[1] = molecular target: T1, CD123-Fc recombinant protein (human, UniProt P26951 19-305); experiment: flow cytometry of T cells electroporated with CAR mRNA, stained with CD123-Fc + PE-anti-hIgG-Fc; Mock 1.68
T1 construct: construct not described; not shown: Fc part
T1 sequence (looked up): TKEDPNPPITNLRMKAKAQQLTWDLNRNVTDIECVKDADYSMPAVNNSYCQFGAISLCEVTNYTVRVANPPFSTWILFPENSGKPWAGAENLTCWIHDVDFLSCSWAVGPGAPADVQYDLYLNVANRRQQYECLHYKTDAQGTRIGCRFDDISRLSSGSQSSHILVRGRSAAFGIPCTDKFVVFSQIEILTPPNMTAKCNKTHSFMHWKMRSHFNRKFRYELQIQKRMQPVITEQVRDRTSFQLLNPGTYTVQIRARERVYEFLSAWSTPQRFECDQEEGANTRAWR
Procedure: (§1) The CD123 CAR mRNAs obtained in Example 35 above were each introduced into T cells by electroporation according to the following procedures: T cells were collected, washed with the Opti-MEM medium, and resuspended at 1×10e⁷/mL with the Opti-MEM medium; 10 μg of RNA and 100 μL of T cells were aliquoted, mixed well, and electroporated under the following parameters (BTX machine): 500 V, 0.7 ms; the cells were then transferred to a pre-warmed medium and cultured at 37° C. The binding of CD123 CART cells to the CD123-Fc recombinant protein was detected by FACS staining. […] Empty vector (Mock) was a control T cell without CAR molecule. A549 tumor cells were electroporated with different amounts of CD123 mRNA. The electroporation procedure was the same as described above, and only the parameters were changed, with the parameters 300 V, 0.5 ms used. CD123 expression in A549 tumor cells was detected by FACS staining of isotype or anti-CD123 antibodies and A549 cells electroporated with different amounts of CD123 mRNA. […] The cytotoxicity of CD123 CART cells against tumor cells was detected in an in vitro cytotoxicity assay. Tumor cells expressing EGFP or EGFP-A549 cells electroporated with different amounts of tumor antigen were seeded at 3000 cells/100 μL/well into a flat-bottom 96-well plate; CART cells were diluted to a proper concentration and seeded to the 100 μL/well tumor cells according to different E/T ratios (e.g., 10:1, 3:1, or 1:1), and the co-culture plate was placed into the IncuCyte S3 machine and scanning parameters were set. After scanning for 3 days, the total green object integrated intensity (GCU×μm²/well) was analyzed to calculate the killing efficiency.

[2] = molecular target: T1, CD123-Fc recombinant protein; experiment: flow cytometry of T cells electroporated with CAR mRNA, stained with CD123-Fc + PE-anti-hIgG-Fc
Procedure: as §1

[3] = molecular target: T1, CD123-Fc recombinant protein; experiment: flow cytometry of T cells electroporated with CAR mRNA, stained with CD123-Fc + PE-anti-hIgG-Fc; Mock 0.36
Procedure: as §1

[4] = molecular target: T2, recombinant human CD40-His antigen protein (human, UniProt P25942 21-193); experiment: ELISA; plate coated with CD40-His 2 µg/mL; IgG1, anti-human IgG-Fc (HRP)
T2 construct: Bought protein; also called recombinant CD40-His protein; CD40 antigen; not shown: His tag
Procedure: Therefore, the affinity of the CD40 antibody (in the form of a human classical monoclonal antibody IgG1) was detected by in vitro binding ELISA. The brief experimental procedures were as follows: [0569] (1) Construction of antibody expression plasmid: an antibody VH region was subcloned into a pEF vector containing a human CH1-Fc antibody fragment, and an antibody VL region was subcloned into a pEF vector containing a human CL antibody fragment. [0570] (2) Antibody expression: 33 μg of an antibody heavy chain expression plasmid and 67 μg of an antibody light chain expression plasmid were co-transfected into 293F suspension cells by PEI. After 4 days of culture, the supernatant was collected by centrifugation. [0571] (3) Antibody purification: the protein supernatant and protein A purification medium were incubated on ice for 2 h, and then the supernatant and the purification medium were separated by a gravity column. The purification medium was rinsed thoroughly with 100 mL of pre-cooled PBS to remove impure proteins, and finally, the target protein was eluted from the purification medium with 5-10 mL of 0.1 M Glycine-HCl (pH 2.7), and 1/10 volume of 1 M Tris-HCl (pH 9.0) was immediately added to neutralize the antibody. […] After the protein concentration was measured with A280, the antibody was packaged and cryopreserved at −80° C. […]

[5] = molecular target: T3, CD40 (analyte of the SPR assay) (UniProt P25942 21-193); experiment: SPR (Biacore 2000); antibody captured on protein A chip, CD40 3.125-100 nM; heterogeneous ligand model, kd2
T3 construct: Injected at 3.125-100 nM over captured antibody; also called CD40 antigen
Procedure: (§2) The experimental procedures were as follows: The binding affinities between the antibodies and the CD40 antigen were detected by SPR technique using Biacore 2000 (Cytiva, Sweden). All experiments were performed at 25° C. […] CD40 diluted in a 2-fold gradient (3.125-100 nM) was injected into the mobile phase. The association time was set at 90 s and the dissociation time at 300 s. The chip surface was regenerated by incubation with 10 mM Glycine-HCl (pH 1.5) for 30 s to remove the bound CD40 and antibody. The affinity of the antibody was simulated using a biphasic ligand model (heterogenerous ligand mode) in the build-in Biacore Evaluation software of the machine.

[6] = molecular target: T3, CD40 (analyte of the SPR assay); experiment: SPR (Biacore 2000); antibody captured on protein A chip, CD40 3.125-100 nM; heterogeneous ligand model, kd1
Procedure: (§3) The affinity kinetics of the affinity-matured antibodies were detected using surface plasmon resonance (SPR) technique.
as §2

[7] = molecular target: T3, CD40 (analyte of the SPR assay); experiment: SPR (Biacore 2000); antibody captured on protein A chip, CD40 3.125-100 nM; heterogeneous ligand model, KD2
Procedure: as §2

[8] = molecular target: T3, CD40 (analyte of the SPR assay); experiment: SPR (Biacore 2000); antibody captured on protein A chip, CD40 3.125-100 nM; heterogeneous ligand model, ka1
Procedure: as §2

[9] = molecular target: T3, CD40 (analyte of the SPR assay); experiment: SPR (Biacore 2000); antibody captured on protein A chip, CD40 3.125-100 nM; heterogeneous ligand model, KD1
Procedure: as §2

[10] = molecular target: T3, CD40 (analyte of the SPR assay); experiment: SPR (Biacore 2000); antibody captured on protein A chip, CD40 3.125-100 nM; heterogeneous ligand model, ka2
Procedure: as §3, §2

[11] = molecular target: T2, recombinant human CD40-His antigen …; experiment: ELISA; plate coated with CD40-His 2 µg/mL; HRP-anti-hFc
Procedure: The binding activities of the affinity-matured antibodies for antigen CD40 were detected by ELISA. The experimental procedures were as follows: [0637] 1. 50 μL of recombinant CD40-His protein at a concentration of 2 μg/mL was added to each well of an ELISA plate, and the plate was incubated at 4° C. overnight. […] 2. The next day, the ELISA plate was washed 3 times with PBST (containing 0.05% Tween-20). [0639] 3. 250 μL of 5% skim milk powder (dissolved in PBS) was added to each well of the ELISA plate, and the plate was incubated at room temperature for 2 h. [0640] 4. The plate was washed 3 times with PBST, antibodies with different dilution ratios were added to the ELISA plate at 50 μL/well, and the plate was incubated at room temperature for 60 min. [0641] 5. The plate was washed 3 times with PBST, 50 μL of HRP-anti-hFc antibody was added to each well, and the plate was incubated at room temperature for 60 min. [0642] 6. The plate was washed 3 times with PBST, 50 μL of TMB was added to each well, and after color development at room temperature, 50 μL of 2 M HCl was added to each well to stop the reaction. The plate was read at 450 nm.

Binder	binding result [2]	percent of cells in the CD123-Fc positive gate [3] [%]	EC50 [4]	koff [5] [s⁻¹]	koff [6] [s⁻¹]	Kd [7] [nM]	kon [8] [M⁻¹ s⁻¹]	Kd [9] [nM]	kon [10] [M⁻¹ s⁻¹]	EC50 [11] [µg/mL]	further results
B1	no binding										percent of cells in the CD123-Fc positive gate [1]: 1.37%
B2	no binding	0.53									
B3	no binding	0.64									
B4			0.0448 µg/mL and 305 nM								
B5			0.0492 µg/mL and 344 nM	0.0885	0.00115	103	1.34e+06	0.864	861000	0.0975	
B6				0.0362	0.00102	48.4	1.49e+06	0.686	748000	0.0944	
